Measured values as given in US9549967B2, “Regulation of sodium channels by PLUNC proteins” (The University of North Carolina at Chapel Hill, priority 2009, dated 2017).

Molecular target: T1, α and γ ENaC (Rattus norvegicus, UniProt P37089+P37091)
T1 construct: expressed in transfected cells; host or cells: Xenopus laevis oocytes (cRNA injection)
T1 sequence (P37089 1-698): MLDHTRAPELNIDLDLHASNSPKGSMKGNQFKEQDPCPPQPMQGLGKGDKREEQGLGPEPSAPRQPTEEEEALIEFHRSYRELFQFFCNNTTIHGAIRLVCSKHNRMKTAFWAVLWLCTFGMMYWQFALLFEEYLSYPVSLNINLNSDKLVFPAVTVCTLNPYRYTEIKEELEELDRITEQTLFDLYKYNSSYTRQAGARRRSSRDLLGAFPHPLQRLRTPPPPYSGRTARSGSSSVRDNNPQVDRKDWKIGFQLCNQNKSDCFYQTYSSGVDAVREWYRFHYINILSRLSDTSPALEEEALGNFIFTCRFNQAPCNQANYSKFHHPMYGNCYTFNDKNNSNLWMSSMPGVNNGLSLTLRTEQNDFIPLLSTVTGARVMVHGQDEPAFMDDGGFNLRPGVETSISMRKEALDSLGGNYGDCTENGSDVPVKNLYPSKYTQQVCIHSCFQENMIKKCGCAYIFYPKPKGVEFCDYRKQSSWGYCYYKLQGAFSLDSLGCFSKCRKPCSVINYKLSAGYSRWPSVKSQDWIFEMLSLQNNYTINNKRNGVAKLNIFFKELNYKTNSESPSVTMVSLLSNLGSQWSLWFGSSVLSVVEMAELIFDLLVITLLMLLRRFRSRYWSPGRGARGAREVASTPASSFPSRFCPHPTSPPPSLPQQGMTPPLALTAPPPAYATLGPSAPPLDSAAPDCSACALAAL
T1 sequence (P37090 1-638 partner): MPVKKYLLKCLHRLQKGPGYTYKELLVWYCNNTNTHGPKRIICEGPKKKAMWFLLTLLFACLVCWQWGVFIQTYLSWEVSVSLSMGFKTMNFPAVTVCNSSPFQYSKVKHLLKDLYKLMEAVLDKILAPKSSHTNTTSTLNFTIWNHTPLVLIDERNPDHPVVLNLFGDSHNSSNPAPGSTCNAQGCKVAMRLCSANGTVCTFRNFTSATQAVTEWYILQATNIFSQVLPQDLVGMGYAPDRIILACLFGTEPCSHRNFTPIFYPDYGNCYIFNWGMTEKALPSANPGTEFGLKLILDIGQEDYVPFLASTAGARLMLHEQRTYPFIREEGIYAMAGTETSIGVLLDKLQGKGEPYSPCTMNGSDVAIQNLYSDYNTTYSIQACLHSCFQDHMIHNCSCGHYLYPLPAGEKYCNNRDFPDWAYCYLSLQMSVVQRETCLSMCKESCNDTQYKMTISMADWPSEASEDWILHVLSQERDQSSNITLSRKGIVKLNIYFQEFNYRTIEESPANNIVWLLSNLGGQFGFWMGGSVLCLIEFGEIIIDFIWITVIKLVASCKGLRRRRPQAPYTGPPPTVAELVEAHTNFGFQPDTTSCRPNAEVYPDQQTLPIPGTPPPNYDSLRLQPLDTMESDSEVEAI
T1 sequence (P37091 1-650): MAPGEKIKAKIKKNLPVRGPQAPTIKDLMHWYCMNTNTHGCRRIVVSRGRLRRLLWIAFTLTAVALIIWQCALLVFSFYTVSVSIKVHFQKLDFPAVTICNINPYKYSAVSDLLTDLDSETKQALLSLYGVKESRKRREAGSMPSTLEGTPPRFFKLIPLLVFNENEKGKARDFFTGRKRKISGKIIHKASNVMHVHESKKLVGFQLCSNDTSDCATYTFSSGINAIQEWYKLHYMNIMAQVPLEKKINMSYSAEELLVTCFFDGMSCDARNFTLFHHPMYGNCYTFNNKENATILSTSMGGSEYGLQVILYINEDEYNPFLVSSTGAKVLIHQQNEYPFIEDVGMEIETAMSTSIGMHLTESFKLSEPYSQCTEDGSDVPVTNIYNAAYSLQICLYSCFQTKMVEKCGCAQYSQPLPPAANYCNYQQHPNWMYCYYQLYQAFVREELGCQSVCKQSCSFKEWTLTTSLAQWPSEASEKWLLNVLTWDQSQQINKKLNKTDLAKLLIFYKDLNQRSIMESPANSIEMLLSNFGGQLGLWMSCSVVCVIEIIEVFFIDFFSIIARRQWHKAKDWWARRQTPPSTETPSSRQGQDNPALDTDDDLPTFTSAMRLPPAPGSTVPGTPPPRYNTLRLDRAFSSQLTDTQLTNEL
Experiment: ENaC cleavage by CAP2 in Xenopus oocytes (Western blot, V5 antibody)
Type: cell-based
Settings: αβγENaC, CAP2 and SPLUNC1 co-expressed in oocytes
Method: Western Blotting: Airway surface liquid collected as described above was also placed in protease-inhibitor cocktail (Roche) for Western blotting. The protein concentration was determined using the BCA Assay (Pierce). To obtain SPLUNC1 from Xenopus oocytes, oocytes were lysed in Laemmli buffer or oocyte media was directly sampled and placed in Laemmli buffer. Proteins were resolved using SDS-PAGE and transferred to a Polyvinylidene Fluoride (PVDF) membrane. The membrane was then probed using αSplunc1 or αV5 antibodies and a Donkey anti-Mouse HRP antibody (R&D). The blots were then incubated with ECL reagents (Pierce).
Co-Immunoprecipitation: Xenopus oocytes were injected with either HA-N-Terminus or V5-C-Terminus (HA-NT/V5-CT) tagged subunits in combination with wild type (WT) untagged rat αβγENaC subunits (0.3 ng cRNA each) with or without V5-tagged SPLUNC1 and CAP2 (1 ng cRNA each). After 24 h, 40 eggs per experimental condition were lysed with buffer containing (in mM): 20 Tris, 50 NaCl, 50 NaF, 10 β-glycerophosphate, 5 Na4P2O7 pyrophosphate, 1 EDTA, pH 7.5 and protease inhibitors (complete, Roche), aprotinin (Sigma). Cell lysates were prepared by passing the eggs through a 27 G1/2 needle twice and by centrifugation at 3,600 rpm for 10 minutes at 4° C. Supernatants were transferred to new tubes and samples were spun at 14,000 rpm for 20 minutes at 4° C. […]

B1: SPLUNC1: human SPLUNC1, 256 amino acid secreted PLUNC protein (SEQ ID NO:1); rSPLUNC1 = V5/6His-tagged protein purified from HEK293 media (protein, listed as Homo sapiens)
chain: MFQTGGLIVFYGLLAQTMAQFGGLPVPLDQTLPLNVNPALPLSPTGLAGSLTNALSNGLLSGGLLGILENLPLLDILKPGGGTSGGLLGGLLGKVTSVIPGLNNIIDIKVTDPQLLELGLVQSPDGHRLYVTIPLGIKLQVNTPLVGASLLRLAVKLDITAEILAVRDKQERIHLVLGDCTHSPGSLQISLLDGLGPLPIQGLLDSLTGILNKVLPELVQGNVCPLVNEVLRGLDITLVHDIVNMLIHGLQFVIKV
modifications: V5/6His tag
notes: rSPLUNC1 = V5/6His-tagged protein purified from HEK293 media
α and γ ENaC cleavage by CAP2: only full-length α and γ ENaC subunits could be observed
